In this assay the target is T1, GST-fused Beclin 1 (human, UniProt Q14457 1-450).
T1 construct: Beclin 1, in pGEX4T-3; also called GST-Beclin 1; source: E. coli BL21 (DE3), purified (Glutathione Sepharose 4B)
The assay is described as follows: pull-down; about 1 μg of each purified GST-fused protein combined in 0.8% BSA in PBS at 4 °C overnight; precipitated with anti-RhoB or anti-Beclin 1 antibody (IgG as control) plus protein G Sepharose; western blot. The note with it: both partners purified. (Immunoblotting shows a protein as a band on a membrane.)

T1 sequence (Q14457 whole entry, the tested form may be a part): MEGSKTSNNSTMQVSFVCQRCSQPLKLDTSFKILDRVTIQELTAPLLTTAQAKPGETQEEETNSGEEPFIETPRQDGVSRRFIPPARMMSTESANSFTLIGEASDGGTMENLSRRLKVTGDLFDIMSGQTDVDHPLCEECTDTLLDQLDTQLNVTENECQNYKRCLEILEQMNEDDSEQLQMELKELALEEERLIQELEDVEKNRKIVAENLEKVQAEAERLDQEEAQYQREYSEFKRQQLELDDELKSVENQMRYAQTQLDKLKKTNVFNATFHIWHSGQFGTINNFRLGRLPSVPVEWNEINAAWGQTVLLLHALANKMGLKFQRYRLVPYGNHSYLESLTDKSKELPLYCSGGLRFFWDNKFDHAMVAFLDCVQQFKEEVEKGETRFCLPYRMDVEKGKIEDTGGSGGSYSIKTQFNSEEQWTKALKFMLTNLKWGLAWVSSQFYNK

B1: GST-RhoB (118–196) (domain or fragment, human, UniProt P62745 118-196, looked up)
chain: KKDLRSDEHVRTELARMKQEPVRTDDGRAMAVRIQAYDYLECSAKTKEGVREVFETATRAALQKRYGSQNGCINCCKVL
notes: source: E. coli BL21 (DE3), purified (Glutathione Sepharose 4B)
Consider B1, for which the binding result is reported as “binds”.

For the origin of these results see paper PMC8110956, “An infection-induced RhoB-Beclin 1-Hsp90 complex enhances clearance of uropathogenic Escherichia coli” (Nature Communications, 2021).
